B1: P450SCC purified from bovine adrenal cortex (protein)
chain: ISTKTPRPYSEIPSPGDNGWLNLYHFWREKGSQRIHFRHIENFQKYGPIYREKLGNLESVYIIHPEDVAHLFKFEGSYPERYDIPPWLAYHRYYQKPIGVLFKKSGTWKKDRVVLNTEVMAPEAIKNFIPLLNPVSQDFVSLLHKRIKQQGSGKFVGDIKEDLFHFAFESITNVMFGERLGMLEETVNPEAQKFIDAVYKMFHTSVPLLNVPPELYRLFRTKTWRDHVAAWDTIFNKAEKYTEIFYQDLRRKTEFRNYPGILYCLLKSEKMLLEDVKANITEMLAGGVNTTSMTLQWHLYEMARSLNVQEMLREEVLNARRQAEGDISKMLQMVPLLKASIKETLRLHPISVTLQRYPESDLVLQDYLIPAKTLVQVAIYAMGRDPAFFSSPDKFDPTRWLSKDKDLIHFRNLGFGWGVRQCVGRRIAELEMTLFLIHILENFKVEMQHIGDVDTIFNLILTPDKPIFLVFRPFNQDPPQA
B2: adrenodoxin reductase purified from bovine adrenal cortex (protein)
chain: STQEQTPQICVVGSGPAGFYTAQHLLKHHSRAHVDIYEKQLVPFGLVRFGVAPDHPEVKNVINTFTQTARSDRCAFYGNVEVGRDVTVQELQDAYHAVVLSYGAEDHQALDIPGEELPGVFSARAFVGWYNGLPENRELAPDLSCDTAVILGQGNVALDVARILLTPPDHLEKTDITEAALGALRQSRVKTVWIVGRRGPLQVAFTIKELREMIQLPGTRPMLDPADFLGLQDRIKEAARPRKRLMELLLRTATEKPGVEEAARRASASRAWGLRFFRSPQQVLPSPDGRRAAGIRLAVTRLEGIGEATRAVPTGDVEDLPCGLVLSSIGYKSRPIDPSVPFDPKLGVVPNMEGRVVDVPGLYCSGWVKRGPTGVITTTMTDSFLTGQILLQDLKAGHLPSGPRPGSAFIKALLDSRGVWPVSFSDWEKLDAEEVSRGQASGKPREKLLDPQEMLRLLGH
B3: Bovine cytochrome P450 side chain cleavage enzyme (P450SCC), mature protein with added methionine start, expressed recombinantly (pGBSCC-5, pGBSCC-17, … (protein)
chain: MISTKTPRPYSEIPSPGDNGWLNLYHFWREKGSQRIHFRHIENFQKYGPIYREKLGNLESVYIIHPEDVAHLFKFEGSYPERYDIPPWLAYHRYYQKPIGVLFKKSGTWKKDRVVLNTEVMAPEAIKNFIPLLNPVSQDFVSLLHKRIKQQGSGKFVGDIKEDLFHFAFESITNVMFGERLGMLEETVNPEAQKFIDAVYKMFHTSVPLLNVPPELYRLFRTKTWRDHVAAWDTIFNKAEKYTEIFYQDLRRKTEFRNYPGILYCLLKSEKMLLEDVKANITEMLAGGVNTTSMTLQWHLYEMARSLNVQEMLREEVLNARRQAEGDISKMLQMVPLLKASIKETLRLHPISVTLQRYPESDLVLQDYLIPAKTLVQVAIYAMGRDPAFFSSPDKFDPTRWLSKDKDLIHFRNLGFGWGVRQCVGRRIAELEMTLFLIHILENFKVEMQHIGDVDTIFNLILTPDKPIFLVFRPFNQDPPQA
B4: P450SCC expressed from pre-P450SCC encoding DNA in yeast (pGBSCC-12 in K. lactis, pGBSCC-13 in S. cerevisiae SCC-105) (protein)
chain: MLARGLPLRSALVKACPPILSTVGEGWGHHRVGTGEGAGISTKTPRPYSEIPSPGDNGWLNLYHFWREKGSQRIHFRHIENFQKYGPIYREKLGNLESVYIIHPEDVAHLFKFEGSYPERYDIPPWLAYHRYYQKPIGVLFKKSGTWKKDRVVLNTEVMAPEAIKNFIPLLNPVSQDFVSLLHKRIKQQGSGKFVGDIKEDLFHFAFESITNVMFGERLGMLEETVNPEAQKFIDAVYKMFHTSVPLLNVPPELYRLFRTKTWRDHVAAWDTIFNKAEKYTEIFYQDLRRKTEFRNYPGILYCLLKSEKMLLEDVKANITEMLAGGVNTTSMTLQWHLYEMARSLNVQEMLREEVLNARRQAEGDISKMLQMVPLLKASIKETLRLHPISVTLQRYPESDLVLQDYLIPAKTLVQVAIYAMGRDPAFFSSPDKFDPTRWLSKDKDLIHFRNLGFGWGVRQCVGRRIAELEMTLFLIHILENFKVEMQHIGDVDTIFNLILTPDKPIFLVFRPFNQDPPQA

Columns and labels:
[1] = biological target: T1, Bovine adrenodoxin (ADX), mature protein with added methionine start, expressed in K. lactis from pGBADX-1 or pGBSCC/ADX-1, P00257
T1 chain: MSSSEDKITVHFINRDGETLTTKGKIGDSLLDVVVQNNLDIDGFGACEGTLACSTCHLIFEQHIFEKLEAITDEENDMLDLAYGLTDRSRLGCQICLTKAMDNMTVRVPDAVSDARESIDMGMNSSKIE

[2] = biological target: T2, ADX purified from bovine adrenal cortex, P00257
T2 chain: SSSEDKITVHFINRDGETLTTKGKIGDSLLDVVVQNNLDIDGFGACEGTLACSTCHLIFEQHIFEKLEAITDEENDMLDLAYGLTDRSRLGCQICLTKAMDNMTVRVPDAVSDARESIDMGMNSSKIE

| Protein | side chain cleavage of cholesterol (P450SCC activity assay, 14C/3H ratio) [1] | side chain cleavage of cholesterol (P450SCC activity assay, 14C/3H ratio) [2] | cholesterol side-chain cleaving reaction in the presence of NADPH and ADR [1] |
| --- | --- | --- | --- |
| B1 | the side chain of the cholesterol was cleaved within 15 minutes in a yield of 50% | the side chain of the cholesterol was cleaved within 15 minutes in a yield of 50% |  |
| B2 | the side chain of the cholesterol was cleaved within 15 minutes in a yield of 50% | the side chain of the cholesterol was cleaved within 15 minutes in a yield of 50% |  |
| B3 |  |  | cholesterol side-chain cleaving activity was demonstrated in the cell-free extract of K. lactis SCC/ADX-101, whereas the cell-free extract of K. lactis SCC-101, no activity was detectable |
| B4 |  | During 3 hours of incubation, 45% of the cholesterol had been converted |  |

— patent publication US6632633B1, “Process for oxidation of steroids and genetically engineered cells used therein” (Aventis Pharma, S.A., priority 1988, dated 2003)
